Experimental data: patent US11400139B2, “Anti-NET compounds for treating and preventing fibrosis and for facilitating wound healing” (THE CHILDREN'S MEDICAL CENTER CORPORATION, priority 2015, dated 2022)
Entries after “also recorded” stand apart in the source; their conditions may differ.

Legend:
PAD4 expressing cells = details: Subramanian et al.; cited from earlier work
[1] = test system: neutrophil extracellular traps; details: Subramanian et al.; cited from earlier work
NETs [2] = experiment: Full-thickness excisional skin wound healing with systemic DNase 1 treatment; type: in vivo, mouse
Protocol: Mice were induced to be diabetic using multiple low dose injections of streptozotocin (STZ). Six to 8-week old male C57BL/6 or PAD4^−/− mice were randomized into treatment groups of either vehicle or STZ according to their blood glucose levels and body weight at baseline. Mice were fasted for 5 hours and then injected with vehicle or STZ (i.p., 50 mg/kg per day, pH 4, dissolved in 0.1 M sodium citrate buffer) for 5 consecutive days. Fed blood glucose level was measured starting 1 week afterwards. Mice with fed blood glucose level above 300 mg/dL were considered diabetic and used for further experiments. Pancreatic islets were stained for insulin using a rabbit polyclonal anti-insulin antibody (1:500, Cell Signaling, Cat. no. 4590).
Full-thickness excisional wounds were made on the dorsal skin under aseptic conditions as described^22. Mice were anesthetized with ketamine and xylazine (100 mg/kg and 10 mg/kg, respectively, i.p.). Hair was removed and the skin was cleaned with 70% ethanol and betadine. A fold of the dorsal skin was then picked up along the midline, placed over dental wax and punched through with a 4-mm disposable sterile biopsy punch (Miltex) such that 2 wounds were generated in one punch. The procedure was repeated, thus 4 wounds were made per mouse. The mice were housed individually after wounding. In experiments involving diabetic mice, all mice were provided ad libitum with antibiotics (2.5% Sulfatrim) in drinking water. Wounds were digitally photographed using a Sony Camcorder and total wound areas were calculated using ImageJ software. Wound area was expressed as a percentage compared to the area on day 0 when the wounds were made.
Neutrophil recruitment and re-epithelialization were examined in H&E-stained sections. Wounds were cut in half, fixed overnight in zinc fixative and embedded in paraffin. The tissue was sectioned at 10 μm and stained with H&E. Images were acquired with the Zeiss Axiovision software using an Axioplan light microscope coupled to a color Zeiss HRc camera.
Normoglycemic and diabetic WT mice, randomized by blood glucose levels before assigning to treatments, were injected with 10 μg i.v. and 50 μg i.p. DNase 1 (dornase alfa, Genentech) 30 min before wounding and then 50 μg i.p. every 12 hours until wound collection on day 3. Control mice were injected with vehicle (8.77 mg/mL sodium chloride and 0.15 mg/mL calcium chloride)^40.

NETs [3] = details: pre-digestion of NETs with DNase 1, in vitro (Farrera and Fadeel); cited from earlier work
[4] = normoglycemic WT mice, three days post wounding

For `CC(C)(C)n1nnc([C@H](CCCNC(=N)CCl)NC(=O)c2ccc(-c3ccccc3)cc2)n1` [BTT-Cl-amidine, biphenyl tetrazole tert-butyl Cl-amidine], the cell killing (PAD4 expressing cells) is given as “enhanced cell killing” and the “formation of neutrophil extracellular traps” value [1] is given as “blocks the formation”.

B1: DNase 1: DNase 1 (dornase alfa, Genentech), which disrupts NETs (protein, UniProt P24855 23-282, looked up)
Deoxyribonuclease-1: LKIAAFNIQTFGETKMSNATLVSYIVQILSRYDIALVQEVRDSHLTAVGKLLDNLNQDAPDTYHYVVSEPLGRNSYKERYLFVYRPDQVSAVDSYYYDDGCEPCGNDTFNREPAIVRFFSRFTEVREFAIVPLHAAPGDAVAEIDALYDVYLDVQEKWGLEDVMLMGDFNAGCSYVRPSQWSSIRLWTSPTFQWLIPDSADTTATPTHCAYDRIVVAGMLLRGAVVPDSALPFNFQAAYGLSDQLAQAISDHYPVEVMLK
In the case of B1, the enhancement of re-epithelialization (NETs [2]; STZ-induced diabetic WT mice on antibiotics, day 3 post wounding) is reported as greater than 75%, the “promotion of wound area reduction” value (NETs [2]; STZ-induced diabetic WT mice on antibiotics, day 3 post wounding, 10 μg i.v. and 50 μg i.p. before wounding, then 50 μg i.p. every 12 hours) is reported as greater than 20% and the “wound healing (wound area reduction and re-epithelialization), in words” value (NETs [2]; WT mice, diabetic and normoglycemic) is reported as “accelerated wound healing; also recorded: facilitated wound area reduction”. For the same molecule, the “further benefit in wound healing” value (NETs [2]; diabetic PAD4−/− mice, day 3 post wounding) was “did not provide further benefits; also recorded: did not provide additional benefits”, the enhancement of re-epithelialization (NETs [2]; [4]) was roughly 54% and the “neutrophil recruitment to the wound” value (NETs [2]; [4]) was “not affected”. The “wound area versus vehicle” value (NETs [2]; [4]) was “smaller than in those treated with vehicle” and the “clearance of NETs by macrophages” value (NETs [3]) was “accelerated their clearance”.
